From US20250145711A1 (Janssen / Centocor, published 2025) come the findings set out here.

Substitutions are numbered along the chain they refer to. Numbers in names are those of the source.

The labels stand for the following.
B1: BC3B126 (bispecific antibody, human IgG1, kappa, L234A L235A)
chain: EIVLTQSPATLSASPGERVTLSCSASSSVSYMNWYQQKPGQAPRRWIYDSSKLASGVPARFSGSGSGRDYTLTISSLEPEDFAVYYCQQWSRNPPTFGGGTKVEIKGGSEGKSSGSGSESKSTGGSQVQLVQSGAEVKKPGSSVKVSCKASGYTFTRSTMHWVRQAPGQGLEWMGYINPSSAYTNYAQKFQGRVTLTADKSTSTAYMELSSLRSEDTAVYYCASPQVHYDYAGFPYWGQGTLVTVSSEPKSSDKTHTCPPCPAPEAAGGPSVFLFPPKPKDTLMISRTPEVTCVVVSVSHEDPEVKFNWYVDGVEVHNAKTKPREEQYNSTYRVVSVLTVLHQDWLNGKEYKCKVSNKALPAPIEKTISKAKGQPREPQVYVYPPSREEMTKNQVSLTCLVKGFYPSDIAVEWESNGQPENNYKTTPPVLDSDGSFALVSKLTVDKSRWQQGNVFSCSVMHEALHNHYTQKSLSLSPG
heavy: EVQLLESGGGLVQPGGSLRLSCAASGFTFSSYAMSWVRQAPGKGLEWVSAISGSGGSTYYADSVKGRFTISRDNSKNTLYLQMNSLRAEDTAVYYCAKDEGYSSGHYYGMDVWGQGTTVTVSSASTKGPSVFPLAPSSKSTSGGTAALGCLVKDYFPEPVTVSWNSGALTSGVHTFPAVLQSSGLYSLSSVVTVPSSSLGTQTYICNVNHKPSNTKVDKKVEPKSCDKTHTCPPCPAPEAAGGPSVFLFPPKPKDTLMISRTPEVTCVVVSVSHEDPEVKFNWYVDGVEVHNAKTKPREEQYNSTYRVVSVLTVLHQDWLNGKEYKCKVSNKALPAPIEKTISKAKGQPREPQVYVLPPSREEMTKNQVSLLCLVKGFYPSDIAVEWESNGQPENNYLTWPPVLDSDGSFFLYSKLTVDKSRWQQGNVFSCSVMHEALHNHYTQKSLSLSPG
light: EIVLTQSPGTLSLSPGERATLSCRASQSISSSFLTWYQQKPGQAPRLLIYGASSRATGIPDRFSGGGSGTDFTLTISRLEPEDFAVYYCQHYGSSPMYTFGQGTKLEIKRTVAAPSVFIFPPSDEQLKSGTASVVCLLNNFYPREAKVQWKVDNALQSGNSQESVTEQDSKDSTYSLSSTLTLSKADYEKHKVYACEVTHQGLSSPVTKSFNRGEC
notes: IgG1 BCMAxCD3; HC1: CD3B2089-N106A LH scFv-Fc; also called BC3B126.001; B2089 LH NtoA
B2: BC3B128 (bispecific antibody, human IgG1, kappa, L234A L235A)
chain: B1 chain with A232Q
heavy: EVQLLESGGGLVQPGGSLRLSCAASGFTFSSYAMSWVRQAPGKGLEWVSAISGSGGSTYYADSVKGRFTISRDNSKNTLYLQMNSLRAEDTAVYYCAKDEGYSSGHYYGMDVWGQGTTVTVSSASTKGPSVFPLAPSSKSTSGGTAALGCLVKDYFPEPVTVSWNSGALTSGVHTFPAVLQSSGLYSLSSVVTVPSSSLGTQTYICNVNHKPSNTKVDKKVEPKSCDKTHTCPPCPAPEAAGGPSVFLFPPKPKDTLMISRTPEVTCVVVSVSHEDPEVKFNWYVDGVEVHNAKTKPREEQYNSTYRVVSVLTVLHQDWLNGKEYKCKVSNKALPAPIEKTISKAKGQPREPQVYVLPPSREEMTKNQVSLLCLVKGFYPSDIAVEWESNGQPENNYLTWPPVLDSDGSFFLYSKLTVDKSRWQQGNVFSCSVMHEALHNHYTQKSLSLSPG
light: B1 light
notes: IgG1 BCMAxCD3; HC1: CD3B2089-N106Q LH scFv-Fc; also called BC3B128.001; B2089 LH NtoQ
B3: BC3B127 (bispecific antibody, human IgG1, kappa, L234A L235A)
chain: B1 chain with A232G
heavy: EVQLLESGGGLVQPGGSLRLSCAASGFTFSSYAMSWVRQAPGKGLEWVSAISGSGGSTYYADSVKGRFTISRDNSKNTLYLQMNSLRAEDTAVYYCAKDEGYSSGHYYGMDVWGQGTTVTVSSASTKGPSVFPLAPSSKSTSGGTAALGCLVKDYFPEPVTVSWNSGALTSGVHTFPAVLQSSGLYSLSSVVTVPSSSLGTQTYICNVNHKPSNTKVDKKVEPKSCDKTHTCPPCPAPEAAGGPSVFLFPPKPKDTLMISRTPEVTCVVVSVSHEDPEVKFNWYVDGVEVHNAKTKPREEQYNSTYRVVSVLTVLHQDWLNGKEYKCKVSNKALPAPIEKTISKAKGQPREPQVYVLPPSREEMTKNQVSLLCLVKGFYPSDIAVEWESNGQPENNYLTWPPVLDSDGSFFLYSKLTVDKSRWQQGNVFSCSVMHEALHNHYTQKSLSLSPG
light: B1 light
notes: IgG1 BCMAxCD3; HC1: CD3B2089-N106G LH scFv-Fc; also called BC3B127.001; B2089 LH NtoG
B4: PS3B931 (bispecific antibody, human IgG1, kappa, lambda, L234A L235A)
heavy 1: EVQLVESGGGLVKPGGSLRLSCAASGFTFSRYNMNWVRQAPGKGLEWVSSISTSSNYIYYADSVKGRFTFSRDNAKNSLDLQMSGLRAEDTAIYYCTRGWGPFDYWGQGTLVTVSSASTKGPSVFPLAPSSKSTSGGTAALGCLVKDYFPEPVTVSWNSGALTSGVHTFPAVLQSSGLYSLSSVVTVPSSSLGTQTYICNVNHKPSNTKVDKKVEPKSCDKTHTCPPCPAPEAAGGPSVFLFPPKPKDTLMISRTPEVTCVVVSVSHEDPEVKFNWYVDGVEVHNAKTKPREEQYNSTYRVVSVLTVLHQDWLNGKEYKCKVSNKALPAPIEKTISKAKGQPREPQVYTLPPSREEMTKNQVSLTCLVKGFYPSDIAVEWESNGQPENNYKTTPPVLDSDGSFLLYSKLTVDKSRWQQGNVFSCSVMHEALHNHYTQKSLSLSP
light 1: DIQMTQSPSSLSASVGDRVTITCRARQSIGTAIHWYQQKPGKAPKLLIKYASESISGVPSRFSGSGSGTDFTLTISSLQPEDFATYYCQQSGSWPYTFGQGTKLEIKRTVAAPSVFIFPPSDEQLKSGTASVVCLLNNFYPREAKVQWKVDNALQSGNSQESVTEQDSKDSTYSLSSTLTLSKADYEKHKVYACEVTHQGLSSPVTKSFNRGEC
heavy 2: EVQLVESGGGLVKPGGSLRLSCAASGFTFSRYNMNWVRQAPGKGLEWVSSINSNSRYIYYADSVKGRFTISRDSAKNSLYLQMNSLRAEDTAVYYCAKTMGDYYYYYGMDVWGQGTTVTVSSASTKGPSVFPLAPSSKSTSGGTAALGCLVKDYFPEPVTVSWNSGALTSGVHTFPAVLQSSGLYSLSSVVTVPSSSLGTQTYICNVNHKPSNTKVDKKVEPKSCDKTHTCPPCPAPEAAGGPSVFLFPPKPKDTLMISRTPEVTCVVVSVSHEDPEVKFNWYVDGVEVHNAKTKPREEQYNSTYRVVSVLTVLHQDWLNGKEYKCKVSNKALPAPIEKTISKAKGQPREPQVYTLPPSREEMTKNQVSLTCLVKGFYPSDIAVEWESNGQPENNYKTTPPVLDSDGSFFLYSRLTVDKSRWQQGNVFSCSVMHEALHNHYTQKSLSLSPG
light 2: SSELTQPPSVSGAPGQRVTISCAGSLSNIGAGYDVHWYQQLPGTAPKLLIYGNINRLSGVPERFSGSKSGTSASLAITGLQAEDGADYYCQSYDSSLSSYVFGTGTKVTVLGQPKAAPSVTLFPPSSEELQANKATLVCLISDFYPGAVTVAWKADSSPVKAGVETTTPSKQSNNKYAASSYLSLTPEQWKSHRSYSCQVTHEGSTVEKTVAPTECS
notes: FAB-A: CD3B2183 (CD3W245); FAB-B: PSMB890
B5: PS3B913 (bispecific antibody, human IgG1, lambda, L234A L235A)
heavy 1: QVQLQQSGPRLVRPSQTLSLTCAISGDSVFNNNAAWSWIRQSPSRGLEWLGRTYYRSKWLYDYAVSVKSRITVNPDTSRNQFTLQLNSVTPEDTALYYCARGYSSSFDYWGQGTLVTVSSASTKGPSVFPLAPSSKSTSGGTAALGCLVKDYFPEPVTVSWNSGALTSGVHTFPAVLQSSGLYSLSSVVTVPSSSLGTQTYICNVNHKPSNTKVDKKVEPKSCDKTHTCPPCPAPEAAGGPSVFLFPPKPKDTLMISRTPEVTCVVVSVSHEDPEVKFNWYVDGVEVHNAKTKPREEQYNSTYRVVSVLTVLHQDWLNGKEYKCKVSNKALPAPIEKTISKAKGQPREPQVYTLPPSREEMTKNQVSLTCLVKGFYPSDIAVEWESNGQPENNYKTTPPVLDSDGSFLLYSKLTVDKSRWQQGNVFSCSVMHEALHNHYTQKSLSLSPG
light 1: QSALTQPASVSGSPGQSITISCTGTSSNIGTYKFVSWYQQHPDKAPKVLLYEVSKRPSGVSSRFSGSKSGNTASLTISGLQAEDQADYHCVSYAGSGTLLFGGGTKLTVLGQPKAAPSVTLFPPSSEELQANKATLVCLISDFYPGAVTVAWKADSSPVKAGVETTTPSKQSNNKYAASSYLSLTPEQWKSHRSYSCQVTHEGSTVEKTVAPTECS
heavy 2: not shown
light 2: not shown
notes: FAB-A: CD3B891 (CD3B376 - K477); FAB-B: PSMB891
B6: PS3B919 (bispecific antibody, human IgG1, lambda, L234A L235A)
heavy 1: B5 heavy 1
light 1: B5 light 1
heavy 2: EVQLVESGGGLVQPGGSLRLSCAASGFTFSSYAMSWVRQAPGKGLEWVSAISGGIGSTYYADSVKGRFTISRDNSKNTLWLQMNSLRAEDTAVYYCAKDGVGATPYYFDYWGQGTLVTVSSASTKGPSVFPLAPSSKSTSGGTAALGCLVKDYFPEPVTVSWNSGALTSGVHTFPAVLQSSGLYSLSSVVTVPSSSLGTQTYICNVNHKPSNTKVDKKVEPKSCDKTHTCPPCPAPEAAGGPSVFLFPPKPKDTLMISRTPEVTCVVVSVSHEDPEVKFNWYVDGVEVHNAKTKPREEQYNSTYRVVSVLTVLHQDWLNGKEYKCKVSNKALPAPIEKTISKAKGQPREPQVYTLPPSREEMTKNQVSLTCLVKGFYPSDIAVEWESNGQPENNYKTTPPVLDSDGSFFLYSRLTVDKSRWQQGNVFSCSVMHEALHNHYTQKSLSLSPG
light 2: QSVLTQPPSVSAAPGQKVTISCSGSSSNIGNNYVSWYQQLPGTAPKLLIYDNNKRPSGIPDRFSGSKSGTSATLGITGLQTGDEADYYCGTWDSSLSAYVFGTGTKVTVLGQPKAAPSVTLFPPSSEELQANKATLVCLISDFYPGAVTVAWKADSSPVKAGVETTTPSKQSNNKYAASSYLSLTPEQWKSHRSYSCQVTHEGSTVEKTVAPTECS
notes: FAB-A: CD3B891 (CD3B376 - K477); FAB-B: PSMB895
B7: PS3B915 (bispecific antibody, human IgG1, lambda, L234A L235A)
heavy 1: B5 heavy 1
light 1: B5 light 1
heavy 2: not shown
light 2: not shown
notes: FAB-A: CD3B891 (CD3B376 - K477); FAB-B: PSMB892
B8: PS3B912 (bispecific antibody, human IgG1, lambda, L234A L235A)
heavy 1: B5 heavy 1
light 1: B5 light 1
heavy 2: B6 heavy 2 with A23T, T28I, I55Y, S57A, T58P, S63T, W80Y, Y110D, T115I
light 2: B6 light 2 with Y50F
notes: FAB-A: CD3B891 (CD3B376 - K477); FAB-B: PSMB899
B9: PS3B920 (bispecific antibody, human IgG1, lambda, L234A L235A)
heavy 1: B5 heavy 1
light 1: B5 light 1
heavy 2: B6 heavy 2 with I55S, W80Y, T91S
light 2: B6 light 2
notes: FAB-A: CD3B891 (CD3B376 - K477); FAB-B: PSMB897
B10: PS3B921 (bispecific antibody, human IgG1, lambda, L234A L235A)
heavy 1: B5 heavy 1
light 1: B5 light 1
heavy 2: B6 heavy 2
light 2: B6 light 2 with N31I, Y99V, T103G, V107L
notes: FAB-A: CD3B891 (CD3B376 - K477); FAB-B: PSMB896

T1 sequence (P07766 23-207 limits assumed): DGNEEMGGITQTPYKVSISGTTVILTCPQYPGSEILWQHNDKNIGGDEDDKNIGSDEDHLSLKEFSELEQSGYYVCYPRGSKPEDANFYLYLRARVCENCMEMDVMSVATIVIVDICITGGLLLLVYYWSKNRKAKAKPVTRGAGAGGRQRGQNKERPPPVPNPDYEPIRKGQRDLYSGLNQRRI

One assay concerns the target T1, Human CD3 epsilon (CD3ε), on primary human pan T cells (human, UniProt P07766 23-207).
T1 construct: Endogenous CD3 in the TCR complex on T cells; also called T-cell surface glycoprotein CD3 epsilon chain; T3E
Put plainly: flow cytometry on human T cells, anti-human IgG Fc A647 detection. The procedure, abridged:
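Cryopreserved primary human pan T cells (50,000/well) incubated 1 hr at 37 °C with serially diluted bispecific antibodies; bound antibody detected with A647 anti-human IgG Fc (2 ug/mL, 30 min on ice). Read by iQue flow cytometry, gated on singlets and SYTOX green-negative live cells; secondary-alone wells as background.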
(In general: A flow cytometer gives signals particle by particle.)
In the case of B1, the midpoint of the response, the EC50, lay at 177 nM.
Still for that read-out and setting: for B2 the value was 42.9 nM; for B3, 300 nM.

The target in the next assay is T2, human PSMA on prostate cancer cell lines (22RV1, C4-2B) (human, UniProt Q04609 1-750).
T2 construct: also called PSMA-expressing cell lines
T2 sequence (Q04609 whole entry): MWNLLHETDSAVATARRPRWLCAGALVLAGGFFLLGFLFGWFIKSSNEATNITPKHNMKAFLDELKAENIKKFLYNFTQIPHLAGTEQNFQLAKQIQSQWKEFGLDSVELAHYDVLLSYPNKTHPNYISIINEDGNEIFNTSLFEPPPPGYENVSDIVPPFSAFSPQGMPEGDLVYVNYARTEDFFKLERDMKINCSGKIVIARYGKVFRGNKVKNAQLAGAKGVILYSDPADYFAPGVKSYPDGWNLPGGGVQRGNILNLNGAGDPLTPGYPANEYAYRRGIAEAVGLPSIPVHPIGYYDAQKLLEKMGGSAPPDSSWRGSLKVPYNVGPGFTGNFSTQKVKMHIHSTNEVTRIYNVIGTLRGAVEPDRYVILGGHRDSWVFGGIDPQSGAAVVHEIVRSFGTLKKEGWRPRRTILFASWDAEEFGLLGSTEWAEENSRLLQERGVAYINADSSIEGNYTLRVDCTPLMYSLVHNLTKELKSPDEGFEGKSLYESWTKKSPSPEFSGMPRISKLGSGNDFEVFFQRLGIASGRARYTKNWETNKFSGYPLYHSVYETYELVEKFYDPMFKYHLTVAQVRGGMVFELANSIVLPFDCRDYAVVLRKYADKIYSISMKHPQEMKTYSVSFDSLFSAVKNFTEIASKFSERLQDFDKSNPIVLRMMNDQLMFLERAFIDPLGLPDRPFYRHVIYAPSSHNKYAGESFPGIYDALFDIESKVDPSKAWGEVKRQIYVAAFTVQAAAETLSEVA
Put plainly: flow cytometry on C4-2B cells. The procedure: (§1) 22RV1 and C4-2B cells were plated at 50,000 cells per well in 50 μl of assay medium (RPMI, 10% HI FBS) in V bottom plates. Serial dilutions of antibodies were prepared in assay medium with 50 μl of antibody dilutions added to the plates containing cells. The plates were incubated for 60 min at 37° C. at which time 100 μl of staining buffer (Becton Dickinson Cat #554657) was added to all wells of each plate. The plates were centrifuged at 300×G for 5 minutes and the medium was removed from the wells. 200 μl of staining buffer was added to all wells of each plate. The plates were centrifuged at 300× G for 5 minutes and the medium was removed from the wells. 50 μl of 2 μg/ml AlexaFluor647-labeled goat anti-human Fc was added to all wells of the plates and the plates were incubated for 30 minutes at 4° C. 150 μl of staining buffer was added to all wells of each plate. The plates were centrifuged at 300× G for 5 minutes and the medium was removed from the wells.
Consider B4, for which the midpoint of the response, the EC50, lay at 60 nM.
Molecule B5 gave an EC50 of 4.56 nM.
The molecule B6 returned an EC50 of 23.3 nM.
Still for that read-out and setting: the result for B7 reads 60 nM.
Take B8: the EC50 worked out at 36.8 nM.
In turn, B9 gave a half-maximal effective concentration (EC50) of 60 nM.
B10 yielded an EC50 of 6.44 nM.

In a further assay the target is T2, human PSMA on prostate cancer cell …. Put plainly: flow cytometry on 22RV1 cells. On the procedure: as §1
In turn, B4 had an EC50 of 60 nM.
Regarding B5, the EC50 came out at 3.42 nM.
Regarding B6, the EC50 stood at 24.9 nM.
B7: the EC50 worked out at 60 nM.
Same read-out and setting: for B8 the value was 54 nM.
B9: the EC50 came out at 60 nM.
The molecule B10 returned an EC50 of 4.03 nM.

In the next assay the target is T3, recombinant human PSMA (human, UniProt Q04609 44-750).
T3 construct: also called hu PSMA; prostate-specific membrane antigen
T3 sequence (Q04609 44-750 limits assumed): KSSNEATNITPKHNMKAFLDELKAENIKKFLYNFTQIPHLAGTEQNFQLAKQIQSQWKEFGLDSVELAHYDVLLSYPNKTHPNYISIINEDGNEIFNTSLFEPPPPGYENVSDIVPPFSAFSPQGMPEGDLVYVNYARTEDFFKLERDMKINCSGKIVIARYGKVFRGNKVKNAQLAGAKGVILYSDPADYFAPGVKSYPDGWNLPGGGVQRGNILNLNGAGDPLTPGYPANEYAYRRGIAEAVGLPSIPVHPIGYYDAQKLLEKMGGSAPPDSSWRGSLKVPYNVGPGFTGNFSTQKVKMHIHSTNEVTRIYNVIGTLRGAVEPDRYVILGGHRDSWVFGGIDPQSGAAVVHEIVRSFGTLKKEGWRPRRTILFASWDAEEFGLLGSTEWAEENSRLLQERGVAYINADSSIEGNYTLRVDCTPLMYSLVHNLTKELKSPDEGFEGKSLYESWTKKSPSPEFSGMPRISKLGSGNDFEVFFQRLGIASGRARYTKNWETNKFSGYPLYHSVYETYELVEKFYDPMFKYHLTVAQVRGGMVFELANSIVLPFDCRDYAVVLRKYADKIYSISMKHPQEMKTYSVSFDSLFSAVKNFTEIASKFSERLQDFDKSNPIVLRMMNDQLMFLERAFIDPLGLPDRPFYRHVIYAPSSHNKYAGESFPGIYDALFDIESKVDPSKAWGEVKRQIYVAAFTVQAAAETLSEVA
As to the kind of experiment: SPR (Biacore 8K), antibody captured on anti-Fc, PSMA in solution. The procedure:
The binding affinity of anti-PSMA to the recombinant human, cynomolgus or mouse PSMA was determined by surface plasmon resonance (SPR) using a Biacore 8K instrument\. […] The association and dissociation were monitored for 3 and 15 minutes, respectively, using a flow rate of 50 μL/min. Raw binding data was referenced by subtracting the analyte binding signals from blanks and analyzed using a 1:1 Langmuir binding model using the Biacore Insight evaluation software to obtain the kinetics which were used to calculate the binding affinity. The anti-PSMA were captured using an anti-human Fc antibody and the antigens were injected in solution.
(Surface plasmon resonance follows binding to a sensor surface in real time, without labels.)
As for B5, the Kd was at most 0.24 nM.
Take B6: the dissociation constant Kd was 0.823 nM.
As to B7, the Kd amounted to 1.89 nM.
For the molecule B8, the Kd amounted to 0.174 nM.
On the same count and under the same terms, the result for B9 reads 1.35 nM; that for B10, at most 0.0864 nM.

Another assay has as its target T1, Human CD3 epsilon (CD3ε), on primary …. Put plainly: cell-based or functional assay.
With B1, the “EC50, Cytotoxicity” value was 0.182 nM.
Turning to B2, the “EC50, Cytotoxicity” value worked out at 0.0354 nM.
B3: the “EC50, Cytotoxicity” value turned out to be 0.806 nM.

Another assay has the same target. As to the kind of experiment: cell-based or functional assay. This is another data set of the same source.
On to B1, for which the “H929 Killing EC50” value worked out at 0.182 nM.
On the same count and under the same terms, the result for B2 reads 0.0354 nM.
In the case of B3, the “H929 Killing EC50” value amounted to 0.806 nM.

Usually EC50 stands for the midpoint of the concentration-response curve. For orientation: Kd means the free concentration of one partner at which half of the binding sites on the other are occupied at equilibrium, for simple one-to-one binding.
